Data reported in patent US20120164123.

Assays:
[1] = tested on: mono-ADP-ribosylated HNP-1
[2] = tested on: human neutrophil peptide-1 (HNP-1)
human neutrophil peptide-1 (HNP-1), sequence (chain, as listed by the source): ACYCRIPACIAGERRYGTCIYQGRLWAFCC

mono-ADP-ribosylated HNP-1, sequence (chain, as listed by the source): as above

With manganese-activated arginase the “ornithine formation by arginase (amino acid analysis and MS)” value [1] was “Identification of the products by amino acid analysis and MS identified ornithine only in the reaction that contained free arginine” and the “ornithine formation by arginase (amino acid analysis and MS)” value [2] was “Identification of the products by amino acid analysis and MS identified ornithine only in the reaction that contained free arginine”.
